Experimental findings from US12144869B2, “Anti-ROR1 antibody conjugates, compositions comprising anti ROR1 antibody conjugates, and methods of making and using anti-ROR1 antibody conjugates” (Sutro Biopharma, Inc., priority 2022, dated 2024) are described below.

The test system of data set [1] is ROR1 positive Ntera-2 cell. The experiment in a line: In vitro cell killing of ROR1 ADCs on Ntera-2. It is filed as cell-based. On the procedure: (§1) Anti-ROR1 antibody was conjugated to different linker-warheads described herein at different DARs and the cell killing activity of the ADCs were evaluated on ROR1 positive Ntera-2 cell and ROR1 negative MCF7 cells.
(§2) Ntera-2 or MCF7 cell at 625 cells/25 μL were seeded in a 384-well flat bottom white polystyrene plate one day before the assay start. ADCs were formulated at 2× starting concentration. Filter sterilized samples were serial diluted (1:3) under sterile conditions and added onto cells in triplicates. Plates were cultured at 37° C. in a CO2 incubator for 120 hours. For cell viability measurement, 30 microliter of Cell Titer-Glo® reagent (Promega Corp, Madison, WI) was added into each well, and plates processed as per product instructions. Relative luminescence was measured on an ENVISION® plate reader (Perkin-Elmer; Waltham, MA). Relative luminescence readings were converted to % viability using untreated cells as controls. Data was fitted with non-linear regression analysis, using log (inhibitor) vs. response, variable slope, 4-parameter fit equation using GraphPad Prism.
To evaluate if the cell killing activity of anti-ROR1 ADCs is dependent on antibody binding to ROR1 expressed on cell surface, the same linker-warheads (LP3, LP4) were conjugated to an anti-GFP antibody and the cell killing of the anti-ROR1 and anti-GFP ADCs were evaluated in cell killing assays on ROR1 positive Ntera-2 cell and ROR1 negative MCF7 cells. […]

A further data set relates to ROR1 negative MCF7 cells. The experiment in a line: In vitro cell killing of ROR1 ADCs on MCF7. It is filed as cell-based. On the procedure: as §1, §2
To evaluate if the cell killing activity of anti-ROR1 ADCs is dependent on antibody binding to ROR1 expressed on cell surface, the same linker-warheads (LP3, LP4) were conjugated to an anti-GFP antibody and the cell killing of the anti-ROR1 and anti-GFP ADCs were evaluated in cell killing assays on ROR1 positive Ntera-2 cell and ROR1 negative MCF7 cells.

The subject of data set [2] is ROR1-positive Ntera-2 cells. The experiment in a line: Induction of immunogenic cell death markers (calreticulin FACS, HMGB1 ELISA). The following applies: 3 days treatment. It is filed as cell-based. On the procedure:
ROR1-positive Ntera-2 cells were treated with Conjugate 46 or exatecan for 3 days. Calreticulin on the cell surface was measured by FACS and HMGB1 in the cell culture medium were measured by ELISA. […] FIG. 20A and FIG. 20B illustrate calreticulin expression and HMGB1 release of Ntera-2 cells in the presence of Conjugate 46 or exatecan compared to the un-conjugated antibody and an isotype control of Conjugate 46.
(In general: ELISA stands for enzyme-linked immunosorbent assay.)

Data set [3] relates to ROR1-positive Ntera-2 cells co-cultured with PMBCS. The data set can be described thus: Ntera-2/PBMC co-culture: target cell killing and monocyte activation. It is filed as cell-based. On the procedure:
ROR1-positive Ntera-2 cells were co-cultured with PMBCS at E:T=[…] and treated with Conjugate 46 or exatecan for 3 days. Live target cell count and monocyte activation were measured by FACS. […] FIG. 21A and FIG. 21B are graphs showing the percent of live target cells and monocyte activation in Ntera-2 cells following treatment with Conjugate 46 or exatecan compared to the un-conjugated antibody and an isotype control of Conjugate 46. […] Unconjugated anti-ROR1 antibody or a non-targeted ADC had no activity. […] Viability and calreticulin surface expression were measured and presented as a percentage compared to untreated cells.

Another data set relates to TNBC PDX tumors. The experiment in a line: TNBC PDX models, single agent or combination with olaparib. It is filed as in vivo, athymic nude mice. The conditions noted are these: CTG-0437, CTG-1017, and CTG-2055; single agent olaparib 50 mg/kg p.o. qd×28. The source says:
The activity of Conjugate 46 as a single agent or in combination with the PARP inhibitor olaparib was additionally assessed in TNBC PDX models. Briefly, PDX tumors, spanning varying levels of ROR1 expression and sensitivity to olaparib, were passaged in athymic nude Fox1^nu mice before being processed into tumor fragments for subcutaneous implantation into the hind flank of mice for study initiation. When tumors reached a volume of around 150-300 mm^3, the mice were randomized and enrolled into the study. Tumor-bearing mice were administered up to three weekly doses (qw×3) of Conjugate 46 i.v. at 5 mg/kg and up to twenty-eight daily doses (qd×28) of olaparib p.o. at 50 mg/kg.
Combination treatment with Conjugate 46 and olaparib (50 mg/kg, qd×28) is conducted using a 2 mg/kg, qw×3 dosing regimen for Conjugate 46. The combination therapy is assessed in six TNBC PDX models as described in Example 26.

For data set [4], the system named is Immunoglobulin (Ig), Frizzled (Fz), and Kringle (Kr) domains of ROR1. The experiment in a line: Epitope binning ELISA on ROR1 domains. It is filed as binding. The following applies: Table 6. The text has this: Antibody binding was detected via HRP-conjugated anti-human Fc antibodies (Jackson Immunoresearch) and detection with SuperSignal ELISA Pico Chemiluminescent Substrate (Pierce).

A short description of data set [5]: Differential scanning fluorimetry (protein thermal shift; TM1/TM2). It is filed as physicochemical. The conditions noted are these: Table 11; melting temperature of the Fab domain. The method, boiled down: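 Protein at 0.2-2 mg/mL was mixed 1:1 with SYPRO Orange in PBS and heated to 95° C. at ~1.5° C. per minute while fluorescence was monitored, in quadruplicate. TM1 is Fc (CH2) unfolding and TM2 is Fab unfolding.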
For orientation: In DSF a fluorescence change marks the thermal transition of the protein.

A further data set deals with T1, human ROR1-Fz (Homo sapiens, UniProt Q01973).
T1 construct: Frizzled (Fz, residues 165-305); His6 (C); purchased Acro Biosystems; host or cells: HEK293
The experiment in a line: Biacore off-rate and kinetic analysis, ROR1-Fz. The data set is classed as binding. The following applies: Table 11; SP34 light chain. The method, boiled down: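 Anti-ROR1 antibodies captured on anti-human Fc surface; recombinant hROR1 ECD or ROR1-Fz analyte flowed at 100, 50, 25, 6.25, 1.5625 nM plus 0 nM, 180 s association, 600 s dissociation, 25° C., HBS-EP+ buffer. KD from ratio of rate constants, 1:1 Langmuir fit.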
(SPR reads the build-up and loss of mass on a sensor chip optically.)

For data set [6], the target named is T2, HCT116 cells overexpressing human ROR1 (HCT116-hRor1) (Homo sapiens, UniProt Q01973).
T2 construct: expressed in transfected cells; host or cells: HCT116 (clone HCT116-hRor1-D02)
The experiment in a line: FACS cell binding on HCT116-hROR1. The conditions noted are these: Table 11, SP34 light chain. The text has this:
Ntera-2, MDA-MB-231, MCF7, HCT116 and Mino cells were obtained from ATCC. HCT116-hRor1-D02 clone was generated by transfecting HCT116 cells with a plasmid containing human Ror1 cDNA sequence and selected for highest stable expression of hRor1 on the cell surface. MDA-MB-231, MCF7, HCT116 and HCT116-Ror1 cell were maintained in Ham's F-12 high glucose DMEM (50-50) (Cellgro-Mediatech; Manassas, VA) supplemented with 10% heat-inactivated fetal bovine serum (Hyclone; Thermo Scientific; Waltham, MA), 1% Penicillin/Streptomycin (Cellgro-Mediatech; Manassas, VA) and 2 mmol/L-glutamax (Life Technology; Carlsbad, CA). Mino cells were maintained in RPMI-1640 medium (Cellgro-Mediatech; Manassas, VA) supplemented with 20% heat-inactivated fetal bovine serum (Hyclone; Thermo Scientific; Waltham, MA), 1% Penicillin/Streptomycin (Cellgro-Mediatech; Manassas, VA) and 2 mmol/L-glutamax (Life Technology; Carlsbad, CA).
Variants with expression levels>250 nM were tested in a fluorescence-activated cell sorting (FACS) cell-binding assay. […]
A mix of ROR1 positive and negative cells was prepared as follows. […] Cells were then washed 2× with FACS buffer and fixed for 10 minutes in 200 μl PBS with 2% PFA prior to fluorescence detection. […] Mean Fluorescence Intensity of ROR1 antibody binding was analyzed using FlowJo® software (Tree Star, Inc.).

The next data set concerns ROR1 or ROR2. The data set can be described thus: ROR2 cross-reactivity ELISA (ROR1/ROR2 signal ratio). The data set is classed as binding. The conditions noted are these: Table 11; SP34 light chain. On the procedure: Antibodies were tested for their ability to bind to either ROR1 or ROR2 via ELISA. Briefly, 2 μg/mL of ROR1 or ROR2 (Acro Biosystems) were coated to 384-well polystyrene plates for 1 hr at 30° C. in 0.1 M bicarbonate pH8.9 buffer before they were washed and blocked with 2% BSA in PBST (PBS, 0.1% Tween20) for 1 hr. Antibody variants were diluted to 2.5 μg/mL and further serially diluted 3-fold before 30 μL was applied to the ELISA plates for binding (1 hr at 30° C.). Antibody binding was detected via HRP-conjugated anti-human Fc antibodies (Jackson Immunoresearch) and detection with SuperSignal ELISA Pico Chemiluminescent Substrate (Pierce). Cross-reactivity was reported as a ratio of ROR1-ELISA signal over ROR2-ELISA signal at the highest dilution tested.

For orientation: EC50 means the concentration that produces a half-maximal response. For the molecule `CC[C@@]1(O)C(=O)OCc2c1cc1n(c2=O)Cc2c-1nc1cc(F)c(C)c3c1c2[C@@H](N)CC3` [exatecan], in data set [1] (NTERA2, 120 h, read-out: NTERA-2 EC50), the EC50 is 0.074 nM. The “NTERA-2 Span” value in data set [1] (Table 13, ROR1 positive Ntera-2, 120 hours) is listed as 98%. In the data set with ROR1 negative MCF7 cells (Homo sapiens, MCF7, 120 h, read-out: MCF-7 EC50), the EC50 was found to be 0.466 nM. In the data set with ROR1 negative MCF7 cells (Table 13, ROR1 negative MCF7, 120 hours), the “MCF-7 Span” value was 91%. Further, in data set [2], the “HMGB1 release into the cell culture medium (ELISA)” value was “induced” and the “calreticulin translocation to the cell surface (FACS)” value was “induced”. In [3] (E:T=10.1, 3 days), the “cell killing of target cells (live target cell count, FACS)” value is given as “induced potent cell killing of target cells” and the “monocyte activation (CD86 expression)” value is given as “potently induced monocyte activation”. The “calreticulin on the cell surface” value in data set [3] (concomitant with reduced viability) is listed as “could be detected on the cell surface”.
Turning to `O=C(c1cc(Cc2n[nH]c(=O)c3ccccc23)ccc1F)N1CCN(C(=O)C2CC2)CC1` [olaparib], in the data set on TNBC PDX tumors, the tumor growth suppression result is on record as “moderate tumor growth suppression”.

B1: SRP2196 (antibody, V domains shown)
VH: EVQLVESGGGLVQPGGSLRLSCAASGFNITGYYIHWVRQAPGKGLEWVGYISPNSGSTYYADSVKGRFTISADTSKNTAYLQMNSLRAEDTAVYYCARDSRRYVRPFDYWGQGTLVTVSS
VL: QAVVTQESALTTSPGETVTLTCRSSTGAVTTSNYANWVQEKPDHLFTGLIGGTNKRAPGVPARFSGSLIGDKAALTITGAQTEDEAIYFCALWYSNLWVFGGGTKLTVL
modifications: Synthetic: 1944-A07; VH; Synthetic: SP34 ; VL
For the molecule B1, in [4], the “Domain binding by ELISA” value was “Fz”.

B2: SRP2196-B07 (antibody, V domains shown)
VH: EVQLVESGGGLVQPGGSLRLSCAASGFNITGYHIHWVRQAPGEGLEWVGYISPNSGATYYADSVEGRFTISADTSKNTAYLQMHSLRAEDTAVYYCTRDSRRYVRGWDYWGQGTLVTVSS
VL: QAVVTQESALTTSPGETVTLTCRSSTGAVTTSNYANWVQEKPDHLFTGLIGGTNKRAPGVPARFSGSLIGDKAALTITGAQTEDEAIYFCALWYSNLWVFGGGTKLTVL
What is called Kd is a measure of binding affinity in units of concentration. B2: the “TM2 (° C.)” value in data set [5] was 69 °C. For the same molecule, in the data set with human ROR1-Fz, the “Biacore human ROR1-Fz ka” value was 185000 M⁻¹ s⁻¹, the “Biacore human ROR1-Fz kd” value was 0.000269 s⁻¹ and binding was put at a Kd of 1.45 nM. The “HCT 116-hROR1 Binding Bmax (MFI)” value in data set [6] is 15139 MFI. In data set [6] (read-out: HCT 116-hROR1 Binding Kd), the Kd was 0.3 nM.

B3: SRP2196-B09 (antibody, V domains shown)
VH: EVQLVESGGGLVQPEGSLRLSCAASGFNITEYYIHWVRQAPGKGLEWVGYISPNSGSTYYADSVKGRFTISADTSKNTAYLQMNSLRAEDTAVYYCARDSRRYVRSWDYWGQGTLVTVSS
VL: QAVVTQESALTTSPGETVTLTCRSSTGAVTTSNYANWVQEKPDHLFTGLIGGTNKRAPGVPARFSGSLIGDKAALTITGAQTEDEAIYFCALWYSNLWVFGGGTKLTVL
Turning to B3, in data set [5], the “TM2 (° C.)” value is 72 °C. Also, in the data set on ROR1 or ROR2, the “ROR1/ROR2 ELISA ratio” value was determined as 27.3. For the same molecule, in the data set with human ROR1-Fz, the “Biacore human ROR1-Fz ka” value was determined as 130000 M⁻¹ s⁻¹ and the “Biacore human ROR1-Fz kd” value is 0.000427 s⁻¹.

B4: SRP2196-B11 (antibody, V domains shown)
VH: EVQLVESGGGLVQPGGSLRLSCAASGFNITGYYIHWVRQAPGRGLEWVGQISPNSGYTYYADSVKGRFTISADTSKNTAYLQMNSLRAEDTAVYYCARDSRRYIRSWDYWGQGTLVTVSS
VL: QAVVTQESALTTSPGETVTLTCRSSTGAVTTSNYANWVQEKPDHLFTGLIGGTNKRAPGVPARFSGSLIGDKAALTITGAQTEDEAIYFCALWYSNLWVFGGGTKLTVL
Take B4: in [5], the “TM2 (° C.)” value came out at 74 °C. The “ROR1/ROR2 ELISA ratio” value with ROR1 or ROR2 turned out to be 19.1. Moreover, in the data set with human ROR1-Fz, the “Biacore human ROR1-Fz ka” value turned out to be 137000 M⁻¹ s⁻¹ and the “Biacore human ROR1-Fz kd” value is 0.000597 s⁻¹.
